Where a chain is given by its changes, count along the chain named. “And” between values parts separate entries of the source, which are not always exact repeats. Equal values may be shown once.
What was measured:
Assay in all cases: SPR; biotinylated ADO or ADO mutant immobilised on a Biotin CAP chip (~2500-3000 RU), substrate peptide injected; Biacore T200, 4 °C; 20 mM HEPES pH 7.5, 500 mM NaCl, 10 mM DTT, 0.1% tween-20; 50 µL/minute; multi-cycle or single-cycle mode not given; each cell is one of three independent measurements
Conditions in all cases: both partners purified
[1] = target: T1, ADO-Y222A, N-terminally His-tagged and biotinylated (human, UniProt Q96SZ5 1-270, Y222A, biotin (biotinylated during expression))
T1 construct: 2-aminoethanethiol dioxygenase (ADO), human, UniProt Q96SZ5, full length, site-directed mutant; source: E. coli Rosetta2(DE3), purified (Ni-NTA, SEC); not shown: biotinylation tag (from the vector pQE80L-Navi), N-terminal, kept
T1 sequence (looked up): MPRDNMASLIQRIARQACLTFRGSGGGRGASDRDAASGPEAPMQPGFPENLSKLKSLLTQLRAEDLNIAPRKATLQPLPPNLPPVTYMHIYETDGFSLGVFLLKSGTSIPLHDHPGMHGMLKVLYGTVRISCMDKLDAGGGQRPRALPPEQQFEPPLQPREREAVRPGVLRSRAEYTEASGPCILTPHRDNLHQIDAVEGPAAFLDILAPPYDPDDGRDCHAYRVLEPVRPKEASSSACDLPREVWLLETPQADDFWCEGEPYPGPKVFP

[2] = target: T2, ADO-C220A, N-terminally His-tagged and biotinylated (human, UniProt Q96SZ5 1-270, C220A, biotin (biotinylated during expression))
T2 construct: 2-aminoethanethiol dioxygenase (ADO), human, UniProt Q96SZ5, full length, site-directed mutant; source: E. coli Rosetta2(DE3), purified (Ni-NTA, SEC); not shown: biotinylation tag (from the vector pQE80L-Navi), N-terminal, kept
T2 sequence (looked up): T1 sequence (looked up) with C220A, A222Y

[3] = target: T3, ADO-F256A, N-terminally His-tagged and biotinylated (human, UniProt Q96SZ5 1-270, F256A, biotin (biotinylated during expression))
T3 construct: 2-aminoethanethiol dioxygenase (ADO), human, UniProt Q96SZ5, full length, site-directed mutant; source: E. coli Rosetta2(DE3), purified (Ni-NTA, SEC); not shown: biotinylation tag (from the vector pQE80L-Navi), N-terminal, kept
T3 sequence (looked up): T1 sequence (looked up) with A222Y, F256A

[4] = target: T4, ADO-Y87A, N-terminally His-tagged and biotinylated (human, UniProt Q96SZ5 1-270, Y87A, biotin (biotinylated during expression))
T4 construct: 2-aminoethanethiol dioxygenase (ADO), human, UniProt Q96SZ5, full length, site-directed mutant; source: E. coli Rosetta2(DE3), purified (Ni-NTA, SEC); not shown: biotinylation tag (from the vector pQE80L-Navi), N-terminal, kept
T4 sequence (looked up): T1 sequence (looked up) with Y87A, A222Y

[5] = target: T5, ADO-Y212F, N-terminally His-tagged and biotinylated (human, UniProt Q96SZ5 1-270, Y212F, biotin (biotinylated during expression))
T5 construct: 2-aminoethanethiol dioxygenase (ADO), human, UniProt Q96SZ5, full length, site-directed mutant; source: E. coli Rosetta2(DE3), purified (Ni-NTA, SEC); not shown: biotinylation tag (from the vector pQE80L-Navi), N-terminal, kept
T5 sequence (looked up): T1 sequence (looked up) with Y212F, A222Y

B1: RGS5(2-15), synthetic peptide corresponding to the methionine excised N-terminus of RGS5, residues 2 to 15 (peptide, UniProt O15539 2-15, looked up)
peptide: CKGLAALPHSCLER
notes: regulator of G-protein signalling 5 (RGS5), residues 2 to 15 (N-terminal Cys exposed); UniProt O15539 is printed for the full-length human protein; also called 14-mer RGS5; source: synthetic peptide
In the case of B1, the Kd [1] is reported as 4.42 µM and 4.8 µM and 4.78 µM, the Kd [2] is reported as 960 nM and 1120 nM and 1310 nM and the Kd [3] is reported as 717 nM and 753 nM and 714 nM. The Kd [4] was 1480 nM and 1650 nM and 1840 nM and the Kd [5] was 19.9 µM and 24.5 µM and 29.2 µM.

Source: paper PMC12098869, “An mRNA-display derived cyclic peptide scaffold reveals the substrate binding interactions of an N-terminal cysteine oxidase” (Nature Communications, 2025)
